Values of other authors as cited in publication PMC11924945.

Target: CD47 (Homo sapiens) (UniProt Q08722)
Sequence (Q08722 19-323): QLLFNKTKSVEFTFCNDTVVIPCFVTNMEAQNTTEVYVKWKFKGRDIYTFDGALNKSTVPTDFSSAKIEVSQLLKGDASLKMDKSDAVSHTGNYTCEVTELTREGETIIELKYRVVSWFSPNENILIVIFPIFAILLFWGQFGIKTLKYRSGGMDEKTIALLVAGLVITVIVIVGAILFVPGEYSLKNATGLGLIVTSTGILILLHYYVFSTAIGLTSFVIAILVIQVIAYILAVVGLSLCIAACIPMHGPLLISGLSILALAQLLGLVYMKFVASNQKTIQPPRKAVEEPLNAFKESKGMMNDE

SIRPα allele 2, sequence (P78324 31-373): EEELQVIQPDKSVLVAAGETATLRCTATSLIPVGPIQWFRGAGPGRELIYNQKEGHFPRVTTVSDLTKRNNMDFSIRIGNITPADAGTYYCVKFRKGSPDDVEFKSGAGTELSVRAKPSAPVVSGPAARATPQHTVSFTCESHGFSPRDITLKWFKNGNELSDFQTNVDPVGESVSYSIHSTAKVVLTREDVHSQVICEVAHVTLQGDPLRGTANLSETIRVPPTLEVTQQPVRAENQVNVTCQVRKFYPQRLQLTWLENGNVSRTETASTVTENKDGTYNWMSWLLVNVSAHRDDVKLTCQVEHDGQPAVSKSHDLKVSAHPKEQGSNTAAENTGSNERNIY

In the case of SIRPα allele 2 (from UniProt P78324), the Kd is listed as 1000 nM.
